Our source for the Kd and yeast surface expression values is the FLAb antibody collection (doi:10.7554/elife.23156).

B1: scFv; the commonest letter at each place (parent)
chain 1: EVKLDETGGGLVQPGRPMKLSCVASGFTFSDYWMNWVRQSPEKGLEWVAQIRNKPYNYETYYSDSVKGRFTISRDDSKSSVYLQMNNLRVEDMGIYYCTGSYYGMDYWGQGTSVTVS
chain 2: DVVMTQTPLSLPVSLGDQASISCRSSQSLVHSNGNTYLRWYLQKPGQSPKVLIYKVSNRFSGVPDRFSGSGSGTDFTLKISRVEAEDLGVYFCSQSTHVPWTFGGGTKLEIK

The variants in the data set “fluorescein” derive from B1. Description: Kd (Tite-Seq). Particulars: with fluorescein; format: scFv 4-4-20, heavy + light.
In data set [1] the parent is B1. As to the kind of experiment: yeast surface expression (ratio to wild type); higher = more expressed. Particulars: format: scFv 4-4-20, heavy + light.

For chain 1 F29V W33N, the Kd with fluorescein is not below 10 µM. Moreover, the yeast surface expression in data set [1] stood at 0.722.

As for chain 1 G100R G104Q, in the data set with fluorescein, the Kd was not below 10 µM. In data set [1], the yeast surface expression was 0.217.

As to chain 1 S30H D31S N35P, the Kd with fluorescein was not below 10 µM. Further, in data set [1], the yeast surface expression was determined as 0.391.

chain 1 Y103E W108D: the Kd with fluorescein is not below 10 µM. Also, in data set [1], the yeast surface expression was found to be 0.473.

Regarding chain 1 Y103E W108C, in the data set with fluorescein, the Kd worked out at 0.0221 µM. For the same variant, the yeast surface expression in data set [1] was 0.758.

Take chain 1 Y102K W108S: the Kd with fluorescein is not below 10 µM. For the same variant, in data set [1], the yeast surface expression is 0.534.

In the case of chain 1 G104D M105W, in the data set with fluorescein, the Kd was not below 10 µM. Besides, the yeast surface expression in data set [1] was 0.703.

chain 1 S30V: the equilibrium dissociation constant (Kd) in the data set with fluorescein stood at 0.000743 µM. For the same variant, the yeast surface expression in data set [1] came to 0.901.

For chain 1 S30R, in the data set with fluorescein, the Kd stood at 0.000964 µM. The yeast surface expression in data set [1] was 0.995.

Take chain 1 S30R N35V: the equilibrium dissociation constant (Kd) with fluorescein is not below 10 µM. For the same variant, the yeast surface expression in data set [1] was 0.567.

As for chain 1 Y103G M105N, the dissociation constant (Kd) with fluorescein was not below 10 µM. Also, in data set [1], the yeast surface expression was 1.46.

Take chain 1 Y32F M34F: the Kd with fluorescein amounted to 0.00561 µM. Further, the yeast surface expression in data set [1] amounted to 0.862.

Consider chain 1 W33I N35Y V37C, for which the Kd with fluorescein is not below 10 µM. Further, the yeast surface expression in data set [1] stood at 0.443.

For the variant chain 1 Y107S G109C, the Kd in the data set with fluorescein is not below 10 µM. Further, the yeast surface expression in data set [1] stood at 0.174.

Regarding chain 1 T28N F29R, the Kd in the data set with fluorescein is not below 10 µM. In addition, the yeast surface expression in data set [1] came out at 0.996.

Turning to chain 1 Y103I D106A, the Kd with fluorescein is not below 10 µM. Moreover, the yeast surface expression in data set [1] is 0.489.

As to chain 1 M105L Y107V, the Kd with fluorescein is 1.72 µM. Besides, the yeast surface expression in data set [1] was found to be 1.08.

Turning to chain 1 M105S D106N, the Kd with fluorescein is not below 10 µM. For the same variant, the yeast surface expression in data set [1] turned out to be 0.443.

Take chain 1 N35T V37P: the equilibrium dissociation constant (Kd) in the data set with fluorescein is not below 10 µM. In data set [1], the yeast surface expression turned out to be 0.726.

For the variant chain 1 T28N V37Y, in the data set with fluorescein, the Kd is not below 10 µM. The yeast surface expression in data set [1] turned out to be 1.05.

As for chain 1 T28R W33G, the Kd in the data set with fluorescein was not below 10 µM. Also, the yeast surface expression in data set [1] is 0.684.

With chain 1 Y102H D106Q, the Kd with fluorescein was not below 10 µM. Further, the yeast surface expression in data set [1] was 0.937.

Turning to chain 1 D106C, the equilibrium dissociation constant (Kd) in the data set with fluorescein turned out to be 2.17 µM. In addition, the yeast surface expression in data set [1] amounted to 0.955.

For the variant chain 1 D106R, the Kd in the data set with fluorescein was not below 10 µM. Besides, the yeast surface expression in data set [1] worked out at 0.451.

For the variant chain 1 S101Y D106E, in the data set with fluorescein, the Kd is not below 10 µM. Besides, the yeast surface expression in data set [1] is 0.627.

Turning to chain 1 S101P G104W, the dissociation constant (Kd) in the data set with fluorescein is not below 10 µM. Also, the yeast surface expression in data set [1] was 0.299.

Consider chain 1 Y103Q W108N, for which, in the data set with fluorescein, the Kd was not below 10 µM. Moreover, the yeast surface expression in data set [1] came out at 0.415.

As for chain 1 Y107L W108L, the dissociation constant (Kd) with fluorescein came to 0.000939 µM. In data set [1], the yeast surface expression amounted to 0.676.

chain 1 S30I N35P: the Kd with fluorescein is not below 10 µM. In addition, the yeast surface expression in data set [1] worked out at 0.35.

With chain 1 S101T Y107E, in the data set with fluorescein, the Kd was not below 10 µM. Besides, the yeast surface expression in data set [1] was found to be 0.565.

For chain 1 Y102V W108G, the Kd with fluorescein was not below 10 µM. For the same variant, the yeast surface expression in data set [1] is 0.298.

Take chain 1 G104S Y107G: in the data set with fluorescein, the Kd is not below 10 µM. For the same variant, the yeast surface expression in data set [1] amounted to 0.303.

With chain 1 S30R Y32W, the Kd in the data set with fluorescein was not below 10 µM. The yeast surface expression in data set [1] came out at 0.811.

In the case of chain 1 N35R W36R, the Kd with fluorescein is not below 10 µM. Besides, in data set [1], the yeast surface expression was found to be 0.425.

For chain 1 G104Y Y107H, the Kd with fluorescein was not below 10 µM. For the same variant, in data set [1], the yeast surface expression came to 0.59.

Turning to chain 1 F29L Y32F, in the data set with fluorescein, the Kd was not below 10 µM. The yeast surface expression in data set [1] came out at 0.72.

In the case of chain 1 D31M M34K, in the data set with fluorescein, the Kd is not below 10 µM. In addition, the yeast surface expression in data set [1] turned out to be 0.564.

Take chain 1 N35D W36V: the Kd in the data set with fluorescein is not below 10 µM. The yeast surface expression in data set [1] was found to be 0.668.

On to chain 1 W33M M34I, for which, in the data set with fluorescein, the Kd is not below 10 µM. Also, the yeast surface expression in data set [1] is 0.708.

In the case of chain 1 Y102A Y103K, in the data set with fluorescein, the Kd was found to be 4.14 µM. Besides, the yeast surface expression in data set [1] turned out to be 1.15.

With chain 1 S101N Y103C, the Kd with fluorescein was not below 10 µM. Further, the yeast surface expression in data set [1] is 0.438.

chain 1 Y102K Y103M: in the data set with fluorescein, the Kd stood at 1.14 µM. For the same variant, the yeast surface expression in data set [1] worked out at 1.08.

On to chain 1 M105F D106L, for which, in the data set with fluorescein, the Kd was not below 10 µM. The yeast surface expression in data set [1] stood at 0.356.

For chain 1 T28C W33L, in the data set with fluorescein, the Kd was not below 10 µM. For the same variant, the yeast surface expression in data set [1] was found to be 0.742.

As for chain 1 W36D V37M, the Kd with fluorescein is not below 10 µM. Besides, the yeast surface expression in data set [1] was 1.25.

With chain 1 F29L M34D, in the data set with fluorescein, the dissociation constant (Kd) was not below 10 µM. In data set [1], the yeast surface expression came out at 0.656.

Consider chain 1 D106M W108H, for which the Kd with fluorescein was not below 10 µM. Further, in data set [1], the yeast surface expression is 0.556.

Regarding chain 1 S30T M34E, in the data set with fluorescein, the Kd was 0.345 µM. In addition, the yeast surface expression in data set [1] came out at 0.314.

As for chain 1 Y103M G109Y, in the data set with fluorescein, the Kd was not below 10 µM. The yeast surface expression in data set [1] was found to be 0.265.

Turning to chain 1 Y103M G109W, the Kd with fluorescein is not below 10 µM. Also, the yeast surface expression in data set [1] came out at 0.221.

With chain 1 T28L F29N, the Kd in the data set with fluorescein is not below 10 µM. Moreover, the yeast surface expression in data set [1] is 0.821.

On to chain 1 G104D Y107D, for which the Kd in the data set with fluorescein was not below 10 µM. In addition, the yeast surface expression in data set [1] turned out to be 0.716.

For chain 1 M34A W36M, in the data set with fluorescein, the Kd is not below 10 µM. Besides, the yeast surface expression in data set [1] was found to be 0.249.

As to chain 1 S101Y Y102W M105T, in the data set with fluorescein, the Kd is not below 10 µM. Besides, in data set [1], the yeast surface expression was 0.507.

As for chain 1 D31G N35H, in the data set with fluorescein, the Kd was not below 10 µM. In data set [1], the yeast surface expression worked out at 0.64.

chain 1 F29A W33N: the dissociation constant Kd with fluorescein is not below 10 µM. Besides, the yeast surface expression in data set [1] stood at 0.741.

On to chain 1 Y32W W33Y, for which the Kd in the data set with fluorescein is not below 10 µM. Besides, the yeast surface expression in data set [1] came out at 0.945.

On to chain 1 T28L S30R, for which the Kd with fluorescein worked out at 0.000891 µM. In data set [1], the yeast surface expression stood at 0.99.
